# Assay: soluble on expression in E. coli; label from the status in PepcDB or PDB records
row,Sequence,soluble on expression in E. coli
1,SKSRRWVFALRHGERVDLTYGPWVPHCFENDTYVRKDLNLPLKLAHRAGGKGGYVKDTPLTRLGWFQAQLVGEGMRMAGVSIKHVYASPALRCVETAQGFLDGLRADPSVKIKVEPGLFEFKNWHMPKGIDFMTPIELCKAGLNVDMTYKPYVEMDASAETMDEFFKRGEVAMQAAVNDTEKDGGNVIFIGHAITLDQMVGALHRLRDDMEDVQPYEIGRNLLKVPYCALGAMRGKPWDVVSPPCPPSINSSSGRFDWRILIK,soluble
2,MDKRISIAIDGPAAAGKSTVAKVVAKKLSYVYIDTGAMYRTITYAALEQKVDIENEEQLMEVVKNVKIEFQQGENTQLVFLNGQDVSEVIRTPEVTNRVSIVAKHRLVREEMVRRQQELAEKGGVVMDGRDIGTHVLPDAEVKIFMLASVEERAERRHLENMNKGFDSNLEQLKEEIAQRDKLDSEREVSPLKKADDALELDTTSLSIEEVVQKIMGIVLGVFAK,not soluble
3,MNGMCWIASYPKAGGHWLRCMLTSYVTGEPVETWPGIQAGVPHLEGLLRDGEAPSADPDEQVLLATHFTADRPVLRFYRESTAKVVCLIRNPRDAMLSLMRMKGIPPEDVEACRKIAETFIADEGFSSVRIWAGEGSWPENIRSWTDSVHESFPNAAVLAVRYEDLRKDPEGELWKVVDFLELGGRDGVADAVANCTLERMREMEERSKLLGLETTGLMTRGGKQLPFVGKGGQRKSLKFMGDDIEKAYADLLHGETDFAHYARLYGYAE,soluble
4,MAHHHHHHMRDRVSPGMRPYRNMCASSPCGRLSHWVVALLPLPLSGTRHLLLRIPITRTHTHTHAAHATDKSEVLSSVVAPPPPPGHAALTTVYFVLVVDVGTHLSLSLSMNRDGVEDGIYVNFFGFDGKAAMLACDMYGILPENLLYLPKKMFLQTGDESEQVLLVRYTMCERSRQGTFRTLLGAKSKLIAEGKVEALWEERRRVCQGAAPCPRFTEKQLEEAAAALDTDSESDEERQVDERGMRKPPPPLPPAPPFAPDGPRGEAAAEAAATENDESPTPVTDTPFSRAPDSEPLPPPPTQASSDAGGETRRGSGTTATNDNAALAVDAKRTTQQLPNDWTQYDVVNSLELPRAHKLCSQPPSIPQAYFPRLLETLSMEEKELAAAQKELSRYSKKSARRLRARQQERSNEPSAPGRSTSLPPLSSSPAHKPATTHLHQSVELRNRRELAAVHRVAQAHLRFLSERYEQGRSIDEKMEGVATLGTLEHMLKYQKSIGVAPEFEDRLQSKMVREESRAALQQQLRESEWERAYAIEEKAQHAQEVLERERERTKGIVAEALRTQRLITDWKQVAAHRQQETHLNGVLHRSAVRHAKADAYIETKRAATGMSRYYHDQQEVHRRQLRDTIRDMMISKKFSADGVADEDNDVVA,not soluble
5,MAHHHHHHMDMQEQISDKGADDYDDTLVELKESELLKEDEKKKTKKKLYELNELHHLVNALPYIDSYDNELEQNAKRLVEEEMNLMHKNNEIKNYLETFPLPKITYLSNDNSIIQNELKRCEENRKMQKLNFDHYNIENDVLNNKNIEEWEKTLKKYEIILENSHNALINMELMNKYKEVMWSEHMKVFNHLDINLQNNIKTLKDDIDNINKKRKLHQLSYVNELSTLQNEQKEYKKKNNMVLNEIKKLMTENMLMKYKTNMI,not soluble
6,KTFEPTNPFFRVVLRPSYLYRGCIMYLPSGFAEKYLSGISGFIKVQLAEKQWPVRCLYKAGRAKFSQGWYEFTLENNLGEGDVCVFELLRTRDFVLKVTAFRVNEYV,not soluble
7,MHTLEQLRAGALTGIQALKLSENLTEVPAEVFQLADTLEILDLSGNRLHSLPQEMACLTRLRILFLSDNDFTIFPEVLKELKQLDMLGIKANNIQVIAEDAIPVSLRWLILTDNCIEALPVSIGRCTKLQKVMLAGNQLSGLPDELAACRNIELLRISANNMHTFPEVVKQLPRLAWLAYSSNPFQVNRSSFNALPVIAWENVALMEQLGAGASGIIYKARLNTGKSPEDVAVKVFKGAVTSDGLPEDEMTACMQAGRNSHLVSVLGVIGGHPEGMHGLVMELIPAEYKNLGRPPSFVTCTRDTFAAGTRFTAQQMLLILKGVAEAAKQLHDNGIMHGDLYAHNTLINEKYHSLFGDFGAATLYDKNNRDEAFFLERLDVRAFGCLADDLLQYSVCTKEDEWCLETLKRLSAGCMNEEPDKRPAFNTIVYELQLLQNTHLEHHHHHH,soluble
8,MAHHHHHHMEVFNFGKYNGKTFEEVFEKHKSYVTWVKSLESPSGSLLDFKNYVLQKEGKKNSSNMANNNHYNNEKNSNNNYSNNMYENNVRSPNIYNEQYTNNNKMKENYDRNANMNNNEICTNNNRINENNVKSPHYYNNEKNINNYSHECNRSKIAYKHNYSENRNSYNNFEKSSVDTNYTNEEKKKFHNMNSSEYRNYEEKVMSDINNAYNQPEEKKEFDIIVAFEIFSDDSFKIVQKDNNNKKFVSFRNFISKDLFKIISELNPTLKKINNYTCITFEAEKYEYVLNNLKEKCTILGGVHTIPNFLLKCFKNYTKFSEPQRISEITANILTNTMCSYTKQHYDKLDHLLGEKLSVELRNFQREGVFFGLKKNGRVLIGDEMGLGKTLQALALMAFYKDDWPFIVVCPSSIRFQWKDQALRWLSHLIREEHICVVKNGKTDIPSNTKMIIISYELITKNDKYQDKYKSIICDESHYLKNSLSKRTKVITPIIKNAKRCVLLSGTPALNKPSELYEQISSIMPNFFNYHEFCDRYCFKDKNLYTKKIEYVGCKHTEELHLFLTNTIMIRRLKKDVLKELPDKLRSKIPVEIPQKELSEILNYYKKLESKKNINFHDIDNIHLSNWSNSKSEDGDDENLSISHLFKITGYAKVKAIKEYISYLIDADIKFLLFCHHKLVMDEVETFLKEQKCSYIRVDGLTPMEKREIYIKNFQNDDNVKIALLSITACGMGLNLTAANTVVFGELFWVPGQIIQAEDRAHRIGTAHDVVNIHYLIAQNTIDEIVWKIINRKWNTLTTALNGIEDSLNVKEVNKFDKFMVDLTNDTNKSYPTSLVTTPKVRRKSSEHGTFHNSSPKKKNRDIRDFFTANKCNESVEKSWNNNINKRSYHDSPMNDSPNTTLKFLSKKYKTEIN,not soluble
9,MSLKKRIFVTGGAEGIGRAIVEAFCKDGHQVAFCDINAVSGQQTARDTGAIFHPVDVSDKEALESCMQQILDEWKDIDIVINNVGISKFSSITETSVEDFDKILSVNLRPVFITSRLLAIHRKAQSDSNPYGRIINICSTRYLMSEPGSEGYAASKGGIYSLTHALALSLSEWNITVNSIAPGWIQTQNYDQLRPEDHSQHPSRRVGKPEDIARMCLFLCRDENDFINGENITIDGGMTKKMIYTEGHHHHHH,soluble
10,MSLTTVRMTIPDDFILGAAASAWQTEGWSGKKPGQDSWPDLWYKNDRHVWHNGYGPAVATDFINRFQEDVQLMKLAGLTHYRTSINWSRFLTDYENVTVDEEYAAYYDQLFDALLANGITPMICLEHYELPGYLLEKYGGWGSKTVVELFVRYAEKVFARYHPKVTRWFTFNEPIVVQTRVYLDALRWPYEQNTSTWMQWNYHKVLATASVVKRFRELGYPGTIGCILNPEVTYPRSRAPHDLRAAEIYDLFYNRMFLDPLVHGVWPPELLALLEQHQVTWETSEEDLAVIREHTVDELGINLYYPHRVKAPSRAWHPHTPFHPAWYYEPFELPGRRMNASRGWEIYPQIIFDMAMRIKNDYRNIPWFVAESGMGVENEGQFRNREGVIDDSYRIRFISEHLWHTLRAREAGANCQGYMLWAFTDNVSPMNAFKNRYGLIEIDLQNHRARRAKASAHWFRQLGERRELVLDEGHHHHHH,soluble
11,MSLPKPQLRIIAGDFEDPRIIALLAHHFATMRSTGPEESCHVMPLGTMRQADLDFFAAWDGDALAGFGAVKQLGDGHGEIKSMHTAAAYRGRGVGQAVLDHLSTHARALGLQRLSLETGAGDFFVPARAMYARNGFQTCDPFGDYKPDPNSVFMTRMLEGHHHHHH,not soluble
12,MSFRGTVKWFSKDKGYGFITREDTNADVFVHFTDIQMEGFKTLQKGQKVEFDVVEDTKGPRAKNVRVLGE,soluble

# Source: the DeepSol protein solubility set
